Source: the nanobody polyreactivity screen of Harvey et al. (2022)

Test: yeast display, Sf9 membrane polyspecificity reagent, FACS + sequencing; frameworks hold sequencing errors
Procedure, shortened: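 Synthetic nanobody libraries on Saccharomyces cerevisiae BJ5465 were galactose-induced for 36–48 hours, stained 1 hour at 4 °C with 10% biotinylated, detergent-solubilized Sf9 membrane reagent and enriched on streptavidin microbeads. FACS then separated cells into low and high (top ~1%) gates by anti-HA (expression) and streptavidin (reagent binding) fluorescence. Genes were colony-PCR amplified, MiSeq 2 × 250 sequenced and CDR-length filtered. A clone's polyreactivity label is that of its gate of origin.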

| Sequence | polyreactivity (PSR sort gate) |
| --- | --- |
| QVQLVESGGGLVQAGGSLRLSCAASGRTFYVNAMGWYRQAPGKERELVAAISRSGRTNYADSVKGRFTISRDNAKNTVYLQMNSLKPEDTAVYYCAAALSNVRNVRSPYDYWGQGTQVTVSS | high polyreactivity |
| QVQLVESGGGLVQAGGSLRLSCAASGRIFNRYTMGWYRPAPGKEREFVAAISSRGGSTYYADSVKGRFTISRDNAKNTVDLQMYSLIPEDTAVYYCNKDYYWPLYAPYDSWGQGTRVTVSS | high polyreactivity |
| QVQLVESGGGLVQAGGSLRLSCAASGRTFYKYAMGWSRQAPGKERELVAVINWSGGRTYADSVKGRFTISRDNAKNTVYLQMNSLKPEDTAVYYCAADRGGLTHRWERNDYWGQGTQVTVSS | low polyreactivity |
| QVHLVESGGGLVQAGGSLRLICAASGSTFWSYAMGWYRQAPGKERELVAAITSGGRTYYADSVKGRFTISRDNAKNTVYLQMNRLKPEYTAVYNCNAVVRHTYRRFDYWGQGTQVTVSS | high polyreactivity |
| QVQLVESGVGLVQAGGSLSLSCAASGRIFTYNALGWYRQAPGKERELVAAISALGGITYYADSVKGRFTISRDNAKITVYLQMNSLKPEDTAVYYCNKRYSSWSGVHDYWGQGTQVTVSS | high polyreactivity |
| QVQLEESGGGLVQAGGSLRISCAASVRILSWYAIGWYRQAPGKERELVAAISVRGSTYYADSVKGRFTISRDNAKNTVYLQMNSLKPDDTAVYYSNRVWLQASTTIVVSSRRLYYWGLGTQVTVSS | high polyreactivity |
| QVQLVESGGGLVQAGGSLRLSCAASGRIVKFYDMGWYRQAPGKEREFVAAISRRGSSTYYADSVKGRFTISRDNAKNTVYLQMNSLKPEDTAVYYCAADWTFGAIGYYYWGHGTQVTVSS | high polyreactivity |
| QVQLVESGGGLVQAGGSLRLSCAASGGTFKFFAMGLYRQAPGKERELVAAITSGGSTNYADSVKGRFTISRDNAKNTVYLQMNRLKPEDTAVYYCAVDSLPNSPYDYWGQGTQVTVSS | low polyreactivity |
| QVQLVESRGFLVQAGGSLRLSCAAYGSSFFTYAMGWYRQAPRKERELVAGINWSGGSTYADSVKGRFTMSRDNAKNTVYLQMNSLKPEDTAVYFCAAKYYSERSRYHYWGQGTQVTVSS | low polyreactivity |
| QVQLVESGGGLVQAGGSLRLSCAASGFTFDSYAMGWYRQAPGKERELVAAITSTGGSTYYADSVKGRFTISRDTAKNTVYLQMNSLKPEDTAVYYCAARGGYYKRGYWGQGTQVTVSS | high polyreactivity |
| QVQLVESGGGLVQAGGSLRLSCAASGRTILGYTMGWYRQAPGKESEFVAAITFSGDSTYYADSVKGRFTISRDKAKNTVYLQMNSLKPEDTAVYYCAAAIPRFSAGHYDYWGQGTQVTVSS | high polyreactivity |
| QVQLVESGGGVVQARGSLRLSCAASGSPFWYHDMGWYRQAPGKERELVASISWSGGDTYYADSVKGRFTISRDNAKNTVYLQMNSLKTVDTAVYYCAAATLVSFWLDYWGEGTQVTVSS | low polyreactivity |
| QVQLVESGGGLVQAGGSLRLSCAASGSTFGTYAMGWYRQAPGKERELVATITRRGGRTYYADSVKGRFTISRDNAKNTVYLQMNSLKPEDTAVYYCNAVVRQQGAYDYWGQGTQVTVSS | high polyreactivity |
| QVQLVESGGGLVQAGGSLRLSCADSGITFYGSAMGWYRQAPGQERELVAAISKSGGSTHYADSVKGRFTISRDNAKNTVYLQMNSLKPEDTAVYYCAAAYWTRLRRMDYWGQGTQVTVSS | low polyreactivity |
| QVQLVESGVGLVQAGGSLRLSCAASGFIFRYYTMGWYRPAPGKERELVAVITSGGTTYYADSVKGRFTISRDNAKNTVYLHMNSLIPEDTAVYYCAADYRPRLYGVGVDYWGQGSQVTVSS | low polyreactivity |
| QVQLVESGGGLVQAGGSLRLSCAASGFISPSYAMGWYRQAPGKERELVAAIRSSDGSTYYADSVKGRFTISRDNAKNTVYLQMNSLKPEDTAVYYCAAGGSYYRDDYWGQGTQVTVSS | low polyreactivity |
| QVQLVESGGGLVQAGGSLRLSCAASGFIFYSYAMGWYRQAPGKERELVAAISRSGGITYYADSVKGRFTISRDNAKNTVYLQMNSLKPEDTAVYYCAKVGRGVSSIKDMDSWGQGTQVTVSS | high polyreactivity |
| QDQHVESGGGLVQAGGSLRLSCAASGSTFKIYAMGWYRQPHGKESELVARITGRGGSTYYADSVKGRFTISRDNAKNTVYLQMNSLKPEDTAVYYCAARVYTYYDDLHKRYYWGQGTQVTVSS | high polyreactivity |
| QVQLVESGGGLVQAGGSLRLSCAASGRIFNSNAMGWYRQAPGKERELAAAISKRGGSTFYADSVKGRFTISRDNAKNTVYLQMNSLKPEDTAVYYCNARRLSTGFERYDYWGQGTQVTVSS | high polyreactivity |
| QVQLVESWGGLVLAGGRLRLSCAASGSTFPYNAMGWYRQAPGKERELVAVISQRGGSTYYADSLKGRFTISRDNAKNSVYLQMKSLKPEDTAVYYCAAEYIVTYGYDYWGQGTQVTVSS | high polyreactivity |
| QVQLVESGGGLVQAGGSLRLSCAASGRIFWGYAMGWYRQAPGKERELVAAINRGSSTYYADSVKGRFTISRDNAKNTVYLQMNSLKPEDTAVYYCAVKGYLPYTGIFDYWGQGTQVTVSS | high polyreactivity |
| QVQLVESGGGVVQAGGSLRISGAASGSIFPFNAMVWYRQAPGKERELVAAIRRSGGSTYYADSVQGRFTISRYNAKNTVDLQMNSLKPEATAVYYCATDPEWPLPAYYYWGQGTQVTVSS | low polyreactivity |

| Sequence | polyreactivity (PSR sort gate) |
| --- | --- |
| QVQLVESGGGLVQAGGSLRLSCAASGSIFRSNTMGWYRQAPGKERELVAGISYSGGSTYADSVKGRFTISRDNAKNTVYLQMNSLKPEDTAVYYCNTVYDPHTGQSDSWGQATQVTVSS | low polyreactivity |
| QVQLVESGGGLVQAGGSLRLSCAASGSTFALYAMGWYRQAPGKERELVASITLSGGRTYYADSVKGRFTISRDNAKNTVYLQMNSLKPEDTAVDYCNAEDYDWMDYWGQGTQVTVSS | high polyreactivity |
| QVQLVESGGGLVQAGGSLRLSCAASGRTFGRYTMGWYRQAPGKERELVATIRFNGGSTYYADSVKGRFTISRDNAKNTVYLQMNSLKPEDTAVYYCASYRGAYWGQGTQVTVSS | high polyreactivity |
| QVQLVESGGGLVQAGASLRLSCAASGRTFETNAMGWYSQAPGKEREFVASINWSGGSTYYSDSVKGRFTISRDNAKNTVYLQMNSLKPEDTAVYYCAADHSYWDWWSYYYWGQGTQVTVSS | low polyreactivity |
| QVHLVESGGGLVQAGGSLRLSCAASGLIFSFYPMGWYRQAPGKERELVAGINWRGGSTYYADSVKGRFTISRDNAKNTVYLQMNSLKPEETAVYYCAAPSYYYGYWGQGTQVTVLS | high polyreactivity |
| QVQLVESGGGLVQAGGSLRLSCAASGSTFAGNAMGWYRQAPGKERESVAAIDSSTGSTYYADSVKGRFTISRDNAKNTVYLQMTSLKPEDTAVYYCNKTSFLVKLDYWGQGTHVTVSS | low polyreactivity |
| QVQLVESGGGLVQAGGSLRLSCAASGFIFSRYAMGWYRQAPGKERELVAYITRRGGRTFYADSVKGRFTISRDNAKNTVYLQMNSLKPEDTAVYYCGADAYGLTLFYVFSYDYWGQGTQVTVSS | high polyreactivity |
| QVQLVESGGGLVQAGGSLRLSCAASGFNFSHNAMGWYRQAPGKERELVAAISGSGGRTYYADSVKGRFTISRDNAKNTVDLQMNSLKPEDTAVYYCNAGRWWRRGYGYWGQVTQVTVSS | high polyreactivity |
| QVQLVESGGGLVQAGGSLRLSCAASGLIFYVYAMGWYRQAPGKERELVASITWSGGRTYYADSVKGRFTISRDNAKNTVYLQMNSLKPEDTAVYFCAKDWWGGPPNVYHSEYEYWGQGTQVTVSS | low polyreactivity |
| QVQLVESGGGLVQAGGSLRLSCAASGSIFEDYAMGWYRQAPGKERELVAGINWSGGSTYYADSVKGRFTISRDNAKNTVYLQMNSLKPEDTAVYYCAAKAFYYYYTEHDYWGQGTQVTVSS | high polyreactivity |
| QVQLVETGGGLVQAGGSLRLSCAASGRTFYQYAMGWYRQAPGKERELVAGITFRGGSTNYADSVKGRFTISRDNAKNTVYLQMNSLKPEDTAVYYCAATVYGTVYKGRSQYEYGYWGQGTQVTVSS | high polyreactivity |
| QVHLVESGGGLVQAGGSLRLSCSASGSTFYAYAMGWYRQARGKERELVARIRWRGGRSYYADSVKGRFTISRDNAKNTVYLQMHSLKPEDTAVYYCAARLYGRYDSQDNYWGQGTQVTVSS | high polyreactivity |
| QVQLVESVGGLVQAGGSLSLTCAASARTLNIYAMGWNRAAPGKERELVAAISKRGGTTYYADSVKGRFTISRDNAKNTVYLQMNSLKPEDTAVYYCNAAVRGVGELDYWGQGTQVTVSS | high polyreactivity |
| QVQLVESGGGLVQAGGSLRLSCAASGSTSYNYVMGWYRQAPGKERELVAAISFTDGTTYYADSVKGRFTISRDNAKNTVYLQMNSLKPEDTAVYYCAAGYTGYTYTEMDYWGQVTQVTVSS | low polyreactivity |
| QVQLVESGGGLVQAGGSLRLSCAASGGIFFPNAMGWYRQAPGKERELVAAISWSAGSTYYADSVKGRFTISRDNAKNTVYLQMNSLKPEDTAVYYCAAAGSNYTVWYGYYYWGQGTQVTVSS | low polyreactivity |
| QVQLVESGGGLVQAGGSLRLSCAASGSILGDYAMGWYRQAPGKEREFVAAIDGSDGSTYYADSVKGRFTISRDNAKNTVYLQMNSLKPEDTAVYYCNVVRQGKREFDYWGQGTQVTVSS | low polyreactivity |
| QVQLVESGGGLVQAGGSLRLSCAASGFTFGRYARGWYRQAPGKERELVAAISRGGSSTYYADSVKGRFTISRDNAKNTVYLQMNSLKPEDTAVYYCNKVIIWARFDYWGQGTQVTVSS | high polyreactivity |
| QVQLVESGGGLVQAGGSLRLSCAASGSIFARYAMGWYRQAPGKERELVATISYRGSSTYYADSVKGRFTISRDNAKNTVYLQMNSLKPEDTAVYYCAARTYRRIYAYYRFDYWGQGTQVTVSS | low polyreactivity |
| QVQLVESGGGLVQAGGSLRLSCAASGFIFQPYALGWYRQAPGKERELDASITLRGGSTYYADSVKGRFTISRDNAKNTVYLQMNSLKPEDTAVYYCAARIYQYWGGHYDYWGQGTQVTVSS | high polyreactivity |
| QVQLVESVGGLGQAGGSLRLSCAASGSTFAGYTMGWYRQAPGKERELVAANTSRGGRTYYADSVKGRFTISRDNAKNTVYIQMNSLKPEDTAVYYCAAVSRYYAELMYYWGQGTQVTVSS | high polyreactivity |
| QVQLVESGGGLVQAGGSLRLTCAASGSTFGDYDMGWYRQAPGKERELVAAISNGGSTYYADSVKGRFTISRDNAKNTVYFQMNSLKPEDTAVYYCNADNVEIRSTYEYGRYLYGYWGQGTQVTVSS | low polyreactivity |
